Laboratory results: the nanobody polyreactivity screen of Harvey et al. (2022)

Assay: yeast display, Sf9 membrane polyspecificity reagent, FACS + sequencing; frameworks hold sequencing errors
Procedure, shortened: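 Polyreactivity labels are assigned by the sorting gate from which each nanobody was recovered. The gates were low and high (top ~1%), set on anti-HA fluorescence for expression and streptavidin fluorescence for reagent binding. Before sorting, galactose-induced (36–48 hours) yeast display cells were stained for 1 hour at 4 °C with 10% biotinylated, detergent-solubilized Sf9 membrane reagent.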

Sequence	polyreactivity (PSR sort gate)
QVHLVESGGGLVQAGGSLRLSCAASGSTFPWYARGWYRKAPGKERELVAAISGSSSTTYYADSVKGRFTISRDNAMNTVYLQMNSLKPEDTAVYYCNAVTTSGSGYGYWGQGTQVTVSS	low polyreactivity
QVQLVDSGGGLVQAGGILRLSCAASGNIIYQNALVWSRHAPGKERELVAAITGRGSSTYYADSVKGRFTSSRDNAKNTVYLQMNSLKPEDTAVYYCAADTTPYDGYYGHGYWGQGTQVTVSS	low polyreactivity
QVQLVESGGGLVQAGGSLRLSCAASGFTFSRYAMAWYRQAPGKERELVAAITWSGGRTYYADSVKGRFTISRDNAKNTVYLQMNSLKPEATAVYYCAAVYHVWKYHYDYWGQGTQVTVSS	high polyreactivity
QVHLVESGVGLVQAGGSLRLSCAASGYTFPAYAMGRYRQAPVKERELVAGISSGGRTYYAYSVKGRFTISRDNAKNTVYLQMNSLKPEDTAVYYCAAFRFYWQSPERYYYWGQGTQVSVSS	high polyreactivity
QVQLVESGGGLVQAGGSLRLSCAASGRIYPTYTMGWYRQAPGKERELVAAINRGGGSTYYADSVKGRFTISRDTAKNTVYLQLICLKPEDTAVYYCTARTYYRSYGYDYWGQGTQVTVSS	low polyreactivity
QVQLVESGGGLVQAGGSLRLSCAASGSTYSYYTMGWYIQAPGKERELVATISRRGASTYYADSVKGRFTISRDNAKNTVYLQMNSLKPEDTAVYYCAKSYYYGRSATRPEYDYWGQGTQVTVSS	high polyreactivity
QVQLVESGGGLVQAGASLRLSCAASGSTFPVYAMGWYRQAPGKERELVAAITGSGARTYYADSVKVRFTISRDNAKNTVYLQMNSLKPEDTAVYYCAKRTVIAVYGYPYRYGMNYWGQGTKVTVSS	high polyreactivity
QVQLVESGGGLVQAGGSLRFSCAASGSIFKGNVMGWYRQAPGKERELVAAITWSGGSTYYADSVKGRFTISRDNAKNTVSLQMNSLKPEDTAVYNCNTRWILGRRFYYWGQGTQVTVSS	high polyreactivity
QVQLVESGGGLVQAGGSLRLSCAASGRTLVTNAMGWYRQAPGKERELVAAIDSDDGTTYYADSVKGRFTISRDNAKKTVYLQMNSLKPEDTAVYYCAAESYWRDDYWGQGTQVTVSS	low polyreactivity
QVQLVESGGGLVQAGGSLRLSCAASGRTFYFYPMGWYRQAPGKERELVAAIRSSGGSTNYADSVKGRFTISRDNAKNTVYLQMNSLKPEDTAVYYFAAKRRAKGNYAFYYWGQGTQVTVSS	high polyreactivity
QVQLVESGGGLVQAGGSLRLSCAASGGTFNRYAMGWYRQAPGKERELVAAISNGGGRTYYADSVKGRFTISRDNAKNTVYLQMNSLKPEDTAVYYCAKDLTRTSYRSAFDYWGQGTQVTVSS	high polyreactivity
QVQLLDSGGGLVQAGCSLRLSCAASGLIFHRNAMGWYRQAPGKERELVAIISSGGGTTYYADSVKGRFTISRDNAKNTVYLQKNSLKPEDTAVYYCNARPRAYGSRGFDYWGQGTQVTVSS	high polyreactivity
QVQLVESGGGLVQAGGSLRLSCAASGSIFGYNDMGCYRQAPGKEREMVAAITTSGDSTYYADSVKGRFTISRDNAKNTVYLQMNSLKPEDTAVYYCNADGEVVDWYHPYYVEYDYWGQGTQVTVSS	low polyreactivity
QVQLVESGGGLVQAGGSLRLSCASYGSIFAYYTMGWYRQAPGKARELVATISSRGGSKNYADSVKGRFTISRDNAKNPVYLQMNSLRPEDTAVYYCYAYHYQSGITVSEYDYWGQGTQVTVSS	high polyreactivity
QVQLVESGGGLVQAGCILRLSCDASGRTFAPYAMGWYRQAPGKAWELVAAITNGGSPSYADSVKGRFTISRDNAKNTVYLEMNSLKREDTAVFYCAADIVSSTDYPFEYWGQGTQVTVSS	low polyreactivity
QVQLVESGGGLVQAGGSLRLSCAASGRTFKYYAKGWYRQAPGKERELVAAINSGGITYYADTVKGRFTISRDNEKNTVYLQRNSLKAEDTAVYYCAKVWKIGVLRYPSYGYYYWGQGTQVTVSS	high polyreactivity
QVQRVESGGGLVQAGGSLRLSCAASGIIFALYAMGWYRQAPGKERELVAAISTSGGRTYYADSVKGRFTISRDNAKNTVYFQMNSLKPEDTAVYYCAAGYPYWYHSRLAFDYWGQGTQVTVSS	high polyreactivity
QVQLVESGGGLVQAGGSLRLSCAASGFTFTRYAMGWYRQAPGKERELVAAMTTNSGSRTYYADSVKGRFTISRDNAKNTVYGQMNSLKPEDTAVYYCAADGPVVRGYYWGQGTQVTVSS	high polyreactivity
QVQLVESGGGLVQAGGSLRLSCAASGRIFTNNARGWYSQAPGKERELVDAINVSGGRTYYADSVKGRFTISRDNAKNTVYLQMNSLKPEDTAVYYCNKVKETYMDNWGQGTQVTVSS	high polyreactivity
QVQLVESGGGLVQAGGSLRLSCAASGSILYPYAMGWYRQAPGKERELVAAISRGGSTNYADSVKGRFTISRDNAKNTVYLQMNSLKPEDTAVYYCATAYTRFSQRYEYYVIYWQNDYWGQGTQVTVSS	low polyreactivity
QVQLVESGGGLVQAGGSLRLSCAASGFTIYKNAMAWYRQAPGKERELVAAISGRGGSTTYADSVKGRFTISRDNAKNTVYLQMNSLKPEDTAVYYCAARFTYSYPLFGSWGQGTQVTVSS	high polyreactivity
QVQLVESGGGLVQAGGTLRLSCAATGITFDAYVMGWYRQAPGKERELVAGIYSGGSTYYADSVKGRFTISRDNAKNTVYLQMNSLKPEDTAVYYWARENYRFADEPPVSRQIPYDYWGQGTQVTVSS	low polyreactivity

Sequence	polyreactivity (PSR sort gate)
QVQLEESGGGLVQAGGSLRLSCAASGLIYSSYAMGWYRQAPGKERELVAAIRSGGNTNYADSVKGRFTISRDNAKNTVYLQMNSLKPEDTAVYYCADGTYSRPYYRTFDHWGQGTQVTVSS	low polyreactivity
QVQLVESGGGLVQAGGSLRLSCAASGRTFGKNAMGWYRQAPGKERELVAAISFSGGRTYYADSVKGRFTISRDNANNTVYLQMNSLKPEDTAVYYCAARGSRRGTWYDYWGQGTQVTVSS	high polyreactivity
QVQLVESGGGLVQAGGSLRLSCAASGRSFRPYARGWYRQAPGKERELVAAISSSGGSTYYADSVKGRFTISRDNAKNTVYLQMNSLKPEDTAVYYCATYFARGYNSWGQGTQVTVSS	high polyreactivity
QVQLVESGGGLVQAGGSLRLSCAASGSTFDTYAMGWYRQAPGKERELVAAISRSGTSTYYADSVKGRFTISRDNAKNTVYLQMISLKPEDTAVYYCDKDAGLQKYHHDYWGQGTQVTVSS	low polyreactivity
QVQLVESGGGLVQAGCSLRLSCAAPGFTLKRYAMGWYRQAPGKERELVAAISRTGGSTYHADSVKGRFTITRDNAKNTVYLQMNSLKPEVTAVYYCAAATSPGIYDHWGQGTQLTVSS	high polyreactivity
QVQLVESGGGLVQAGGSLRLSCAASGRIFTNYAMGWSRQAPGKERELVAAITGVGSTNYADSVKGRFTISRDNEKNTVYLQMNSLKPEDTAVYYCNAEYDYVSYVYTGFAFDYWGQGTQVTVSS	low polyreactivity
QVQLVESGGGLVQAGGSLRLSCAASGSTLSYNAMGWYRQAPGKERELVAAISWSDGGTYYADSVKGRFTISRDTAKNTVFLQMNSLKPEDTAVYYCAARRGVRYSKFGYYYWGQGTQVTVSS	high polyreactivity
QVQLVESGGGLVQAGGSLRLSCAASGIFAYYAMGWYRQAPGKERELVAAISSSGGSTYYADSVKGRFTISRDNAKNTFYLQMNSLKPEDTAVYYCNVRNYYNDYYYWGQGTQVTVSS	high polyreactivity
QVQLVESGGGLVQAGGSLRLSCDASGSIFQNYAMGWYRQAPGKERELVAAINDDSTYYADSVKGRFTISRDNAKNTVYLQMNSLKPEDTAVYYCNAEDYVTLKIDLSWPYGYWGQGTQVTVSS	low polyreactivity
QVQLVESGGGLVQAGGSLRLSCAASGSIFEYNAMGWYRQAPGKERELVAAISRSGGSTYYADSVKGRFTISRDNAKNTVYLQMISLKPEDTAVYYCAARSPRYYRDFGYWGQGTQVTVSS	high polyreactivity
QVQLVESGGGLVQAGGSLRLTCDASGSIIRLYAMVWYRQAPGKERELVDAISYNSGTTYYADSVKGRFTISRDNAKNTVYLQMNSLKPADTAVYYCAARRYYNYDWRQGTQVTVSS	high polyreactivity
QVQLVQSGGGLVQAGGSLRLSCAASGFIFDTYTMGWYRQAPGKERQLVAAISRSGASTYYADSVKGRFTISRDNAKNTVYLQMNSLKPEDTAVYYCATVYYPSYRGGYDYWGQGTQVTVSS	high polyreactivity
QVQLVESGGGLVQAGGSLRLSCAASGLIFIFNTMGWYRQAPGKERELVAAISWSGTSTYYADSVKGRFTISRDNAKNTVYLQMHSLKPEDTAVYYCAARGYYYKYSTARRNYWGQGTQVTVSS	high polyreactivity
QVQLVESGGGLVQAGGSLRLSCAASGSIFVDYVMVWYRQAPGKERELVAAISGNGGRTYYADSVKGRFTISRDNAKNTVYLQMNSLKPEDTAVYYCAKVRSVTIGRDYWGQGTQVTVSS	high polyreactivity
QVQLVESGGGLVQAGGSLRLSCAASGLTFVDNAMGWYRQAPGKERELVAAISYNGGSTYYADSVKGRFTISRDNAKNTVYFQINSLKPEDTAVYYCAADISVGRYVDMDYWGQGTKVTVSS	low polyreactivity
QVQLVESGGGLVQAGGSLRLSCAASGFTLGSNVMGWYRQAPGKERELVAGISQSGGRTFYADSVKGRFTISRDNAKNTVYLQMNSLKPEDTAVYYCNAYRYYSPYGYWGQGTQVTVSS	low polyreactivity
QVQLVESGGGLVQAGGSLRLSCAASGIIFSGYAMGWYRQAPGKERELVAAISSRGGGTYYADSVKGRFTISRDNAKNTVYLQMNSLKPEDTAVYYCNRVAFTYNYWGQGTQVTVSS	high polyreactivity
QVQLVESGGGLVQAGGSLRLSCAASGRISLSNAMGWYRQAPGKEREFVAAITKRSDRTYYADSVKGRFTISRDNAKNTVYLQMNSLKPEDRAVYYCAAKPLFGTRDDYWGQGTQVTVSS	low polyreactivity
QVQLVESGGGLVQAGGSLRLRCAASGRNFGDNRMGWYRQAPGKERELVTYAYSVKGRFTISRDNAKNTVYLQMNSLKPEDTSVYYCNTDPQRFSGLDENYWGQGTQVTVSS	low polyreactivity
QVQLVESGGGLVQAGGSLRLSCAASGSIFDYYTMGWYRQAPGKERELVASITRDGTSTYYADSVKGRFTISRDNAKNTVYLQMNSLKPEDTAVYYCAAERYGFTYSFYYWGQGTQVTVSS	low polyreactivity
QVQLVESGGGLVQAGGSLRLSCAASGFIFSSYAMGWYRQATGKERELVATISWSGGSTYYADSVKGRFTISRDNAKNTVYLQMNSLKPEDTAVYYCAAGYQRYLQRPEFYYWGQGTQVTVSS	high polyreactivity
